Data from patent US20180008672A1, “ANTI-ACTIVIN A ANTIBODIES AND METHODS OF USE THEREOF FOR TREATING PULMONARY ARTERIAL HYPERTENSION” (Regeneron Pharmaceuticals, Inc., priority 2016, published 2018).

Tested on: rat model of pulmonary hypertension induced by monocrotaline
Assay: rat model of pulmonary hypertension induced by monocrotaline
Type: in vivo, rat (Sprague Dawley)
Method: To further evaluate the effect of anti-Activin A antibodies in pulmonary arterial hypertension, a rat model of pulmonary hypertension induced by monocrotaline was used.
Six to seven week old Sprague Dawley rats were used. Rats were separated into treatment groups such that body weights were similar among different groups. Rats were subcutaneously administered either 40 mg/kg of monocrotaline or 5 mL/kg of saline at day 0. At 14 days post injection, saline-injected rats were orally dosed with PEG 400 (at 50:50 v/v, Affymetrix Inc., #19957) at 5 mL/kg daily for two weeks, and monocrotaline-injected rats were separated into 5 groups with a group (n=9) orally dosed with PEG 400 at 5 mL/kg daily for two weeks, another group (n=12) orally administered macintentan at 30 mg/kg daily for two weeks, and three groups that were both orally dosed with PEG 400 at 5 mL/kg daily for two weeks and subcutaneously treated with either anti-Activin A antibodies, H4H10430P (n=9), H4H10446P2 (n=11), or an isotype control antibody (n=10) at 40 mg/kg twice a week for two weeks.
At day 27, pulmonary artery size and right ventricular function and dimensions of the rats were assessed using a high frequency ultrasound system (Vevo 2100, VisualSonics). For the assessment, rats were anesthetized (with 1.5% isoflurane at a rate of 1.0 cc/mL of medical grade air) and their temperature was monitored with a rectal temperature probe and held at approximately 37° C. with a heated platform (Vevo 2100, Visualsonics) and a warming lamp. Both brightness-mode (B-mode) and motion-mode (M-mode) imaging were used. B-mode imaging of the rat heart in cross-section was used to determine pulmonary artery cross-sectional area (PA CSA) at the level of the pulmonary valve. […] was used to determine the pulsed wave velocity time integral (VTI), which is derived from the area under the curve of representative Doppler tracings of blood flow through the pulmonary artery. Right ventricular stroke volume (RV SV) was calculated from the product of PA CSA and VTI. Right ventricular cardiac output (RV CO) was calculated from the product of SV and heart rate (HR). M-mode imaging was used to determine right ventricular free wall (RVFW) thickness during diastole and systole. […]
Right ventricular pressure was subsequently assessed for all treatment groups. […] The catheter was connected to pressure/volume instrument (MPVS-300, Millar Instruments, Inc.) that measured heart rate as well as both diastolic and systolic right ventricular pressures. […] Readings were quantified from a 60 second interval of the pressure tracing (following a 2 minute period of recording to allow for pressure stabilization). The parameters analyzed were RV diastolic and systolic pressures, heart rate and ventricular contractile function. […]

[1] = monocrotaline 40 mg/kg SC day 0, antibodies 40 mg/kg SC 2x/wk, macitentan 30 mg/kg PO daily from day 14 for two weeks, ultrasound day 27

B1: H4H10430P: fully human anti-Activin A antibody, human IgG4 Fc; HCVR/LCVR SEQ ID NOs 66/74 (antibody, V domains shown)
VH: EVQLVESGGGLVQPGRSLRLSCKASGFAFDDFAMHWVRQAPGKGLEWVSGIVWNSGDIGYADSVKGRFTISRDNAKNSLYLQLNSLRTEDTALYFCVKDMVRGLMGFNYYGMDVWGQGTTVTVSS
VL: EIVLTQSPATLSLSPGERATLSCRASQTISTYLVWYRQRPGQAPSLLIYDASNRATDIPARFSGSGSGTDFTLTISSLEPEDFAVYYCQQRSNWPITFGQGTRLEIK
- PA CSA (Ave ± SEM) [1]: 9.439 ± 0.516%% mm^2
- Right Ventricular cardiac output (Ave ± SEM) [1]: 130.0 ± 12.5 mL/min
- Stroke Volume (Ave ± SEM), right ventricular [1]: 362.8 ± 32.6 µL
- effect on PA CSA (in words) (monocrotaline-injected rats, FIG. 3A): restored PA CSA to values measured for saline-injected PEG 400 dosed rats
